From patent US20220119534A1 (DRAGONFLY THERAPEUTICS, published 2022)

Columns and labels:
Human CLEC12A-His [1] = target: T1, Human CLEC12A-His (human, UniProt Q5QGZ9 65-265); assay: SPR Biacore 8K 37 C; TriNKET captured on anti-hFc chip, hCLEC12A-His as analyte; 1:1 fit; after 2 wks 40 C at pH 8.0, n=2
T1 construct: Recombinant soluble protein made in house (Dragonfly Tx); The hCLEC12A spot of the HuProt array is written under this molecule as well; also called hCLEC12A-His; hCLEC12A; not shown: His tag
T1 sequence: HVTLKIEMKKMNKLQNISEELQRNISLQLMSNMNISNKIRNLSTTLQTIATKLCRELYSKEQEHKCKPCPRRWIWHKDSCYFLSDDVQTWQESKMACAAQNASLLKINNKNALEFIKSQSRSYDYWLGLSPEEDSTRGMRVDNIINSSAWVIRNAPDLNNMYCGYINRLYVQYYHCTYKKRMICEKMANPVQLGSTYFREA

mFc-hNKG2D [2] = target: T2, mFc-hNKG2D (human, UniProt P26718 73-216); assay: SPR Biacore 8K 37 C; mFc-hNKG2D captured on anti-mFc chip, TriNKET as analyte; 1:1 kinetic fit; un-oxidized control
T2 construct: extracellular domain; Made in house (Dragonfly Tx); the order of tag and ECD follows the name mFc-hNKG2D; also called mFc-tagged human NKG2D; not shown: mouse Fc tag
T2 sequence (looked up): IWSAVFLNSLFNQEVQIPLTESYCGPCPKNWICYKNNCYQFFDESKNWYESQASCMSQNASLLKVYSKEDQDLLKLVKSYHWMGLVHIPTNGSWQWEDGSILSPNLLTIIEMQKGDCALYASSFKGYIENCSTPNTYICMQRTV

mFc-hNKG2D [3] = target: T2, mFc-hNKG2D; assay: SPR Biacore 8K 37 C; mFc-hNKG2D captured on anti-mFc chip, TriNKET as analyte; 1:1 kinetic fit; after 4 wks 40 C in CST pH 7.0, n=3
Method: (§1) Association was monitored for 60 seconds and dissociation was monitored for 60 seconds. Surfaces were regenerated between cycles with three pulses of 10 mM glycine-HCl, pH 1.7 injected for 20 seconds at 100 μL/min. HBS-EP+ (1×) buffer was used throughout the experiment. Data were analyzed using Biacore 8K Insight evaluation software (GE Healthcare).

mFc-hNKG2D [4] = target: T2, mFc-hNKG2D; assay: SPR Biacore 8K 37 C; mFc-hNKG2D captured on anti-mFc chip, TriNKET as analyte; 1:1 kinetic fit; after 2 wks 40 C at pH 5.0
Method: as §1

mFc-hNKG2D [5] = target: T2, mFc-hNKG2D; assay: SPR Biacore 8K 37 C; mFc-hNKG2D captured on anti-mFc chip, TriNKET as analyte; steady state fit; control sample, n=3
Method: as §1

Human CLEC12A-His [6] = target: T1, Human CLEC12A-His; assay: SPR Biacore 8K 37 C; TriNKET captured on anti-hFc chip, hCLEC12A-His as analyte; 1:1 fit; pH 8.0 control, n=2

B1: F3'-1602 TriNKET (bispecific antibody, human IgG1, kappa)
chain: QLQLQESGPGLVKPSETLSLTCTVSGFSLTNYGLHWIRQPPGKCLEWIGVIWSGGKTDYNPSLKSRVTISKDTSKNQFSLKLSSVQAADTAVYYCAKYDYDDSLDYWGQGTLVTVSSGGGGSGGGGSGGGGSGGGGSDIQMTQSPSSLSASVGDRVTITCHASQNINFWLSWYQQKPGKAPKLLIYEASNLHTGVPSRFSGSGSGTRFTLTISSLQPEDIATYYCQQSHSYPLTFGCGTKLEIKGSDKTHTCPPCPAPELLGGPSVFLFPPKPKDTLMISRTPEVTCVVVDVSHEDPEVKFNWYVDGVEVHNAKTKPREEQYNSTYRVVSVLTVLHQDWLNGKEYKCKVSNKALPAPIEKTISKAKGQPREPRVYTLPPCRDELTKNQVSLTCLVKGFYPSDIAVEWESNGQPENNYKTTPPVLVSDGSFTLYSKLTVDKSRWQQGNVFSCSVMHEALHNHYTQKSLSLSPG
heavy: EVQLVESGGGLVKPGGSLRLSCAASGFTFSSYSMNWVRQAPGKGLEWVSSISSSSSYIYYADSVKGRFTISRDNAKNSLYLQMNSLRAEDTAVYYCARGAPIGAAAGWFDPWGQGTLVTVSSASTKGPSVFPLAPSSKSTSGGTAALGCLVKDYFPEPVTVSWNSGALTSGVHTFPAVLQSSGLYSLSSVVTVPSSSLGTQTYICNVNHKPSNTKVDKKVEPKSCDKTHTCPPCPAPELLGGPSVFLFPPKPKDTLMISRTPEVTCVVVDVSHEDPEVKFNWYVDGVEVHNAKTKPREEQYNSTYRVVSVLTVLHQDWLNGKEYKCKVSNKALPAPIEKTISKAKGQPREPQVCTLPPSRDELTENQVSLTCLVKGFYPSDIAVEWESNGQPENNYKTTPPVLDSDGSFFLYSWLTVDKSRWQQGNVFSCSVMHEALHNHYTQKSLSLSPG
light: DIQMTQSPSSVSASVGDRVTITCRASQGISSWLAWYQQKPGKAPKLLIYAASSLQSGVPSRFSGSGSGTDFTLTISSLQPEDFATYYCQQGVSFPRTFGGGTKVEIKRTVAAPSVFIFPPSDEQLKSGTASVVCLLNNFYPREAKVQWKVDNALQSGNSQESVTEQDSKDSTYSLSSTLTLSKADYEKHKVYACEVTHQGLSSPVTKSFNRGEC
notes: Trispecific F3' format: CLEC12A scFv-Fc paired with NKG2D Fab-Fc; Stressed and control samples of the stability studies are the same molecule; also called AB0237
Human CLEC12A-His [1]
  Kd: 1 nM
  koff: 0.000845 s⁻¹
  kon: 835000 M⁻¹ s⁻¹
mFc-hNKG2D [2]
  Kd: 750 nM
  koff: 0.107 s⁻¹
  kon: 143000 M⁻¹ s⁻¹
mFc-hNKG2D [3]
  Kd: 708 nM
  koff: 0.14 s⁻¹
  kon: 198000 M⁻¹ s⁻¹
mFc-hNKG2D [4]
  Kd: 675 nM
  koff: 0.127 s⁻¹
  kon: 188000 M⁻¹ s⁻¹
mFc-hNKG2D [5]
  Kd: 664 nM
Human CLEC12A-His [6]
  Kd: 1.1 nM
  koff: 0.00084 s⁻¹
  kon: 801000 M⁻¹ s⁻¹
